Assay [1] concerns the target yeast V-ATPase c subunit ring (c8c’c”) (S. cerevisiae) (UniProt P25515). Put plainly: SEC + other: negative-stain EM; purified c-ring (1 mg) on Superdex 200 in buffer with 0.1% DDM (also in UnDM or DM); peak fractions 48 and 58 viewed by negative-stain EM.
The target is the same in assay [2]. Kind of assay: negative-stain EM with single-particle class averaging; c-ring (1.5 mg/ml) mixed with DOPC, detergent removed with BioBeads for 7 days (incomplete); 4337 images of dumbbell-shaped particles outside the bilayers sorted into 16 classes (EMAN1.9).

We go through 1 substance from publication PMC4838861.

Consider “yeast V-ATPase c subunit ring (c8c’c”) (from UniProt P25515 1-160; P32842 1-164; P23968 1-213) (complex)”, for which the stoichiometry N in assay [1] and in assay [2] was 2 throughout.

The stoichiometry N is a count of units in the complex or per binding partner.
